Numbering of substitutions follows the chain as printed.

From patent US20040133357A1 (ABMAXIS, published 2004) come the findings set out here.

Experiment [1] concerns the target T1, purified recombinant human VEGF165 (human, UniProt P15692 27-191, glycosylated).
T1 construct: mature; Bought from Calbiochem; also called VEGF protein (Calbiochem); homodimeric VEGF protein
The experiment can be described thus: SPR (BIAcore), scFv over VEGF immobilized on CM5 chip, 25 C; reference hAB1. The protocol: (§1) BIAcore Biosensor Assay was used to determine antibody affinity. VEGF protein (purchased from Calbiochem) was coupled to a CM-5 biosensor ship by amine coupling. After immobilization, CM-5 chips with 200 to 1000 response unites of VEGF were kept at 4° C. before use. All experiments were performed at 25° C. or 35° C. Each sample in PBS buffer was injected over VEGF surface at a flow rate of 20 ul/min using Biacore 1000 (Biacore AB, Sweden), and bound antibodies were removed from chip by 10 ul of glycine-HCl, PH 1.5 at the end of each cycle. Each sensorgram was recorded and normalized to a PBS base line.
For orientation: In SPR one partner is held on a chip, and binding of the other changes the refractive index at the surface.

Experiment [2] addresses T1, purified recombinant human VEGF165. The experiment can be described thus: SPR (BIAcore), purified scFv over VEGF immobilized on CM5 chip, 25 C. On the procedure: (§2) Antibody fragments in the format of single chain were expressed as described below and purified. The measurement was done by measuring the change of SPR units (y-axis) vs time (x-axis) when a purified antibody binds its antigen (VEGF) immobilized on the CM5 biochip at 25° C. Kd values were calculated by the […].
as §1

Experiment [3] shares this target. The experiment can be described thus: SPR (BIAcore), scFv over VEGF immobilized on CM5 chip; reference hAB1. The protocol: as §2, §1

T1 sequence (P15692 other isoform, or with tags, fused parts or gaps limits assumed): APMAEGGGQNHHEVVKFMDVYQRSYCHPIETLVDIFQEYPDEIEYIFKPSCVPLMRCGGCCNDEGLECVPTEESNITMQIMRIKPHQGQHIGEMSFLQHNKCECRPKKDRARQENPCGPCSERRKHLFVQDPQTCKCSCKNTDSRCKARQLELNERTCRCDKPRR

B1: hAB3 (scFv)
scFv: EVQLVQSGGGVVQPGGSLRLSCAASGYTFTNYGMNWIRQAPGKGLEWVGWINTYTGEPTYAADFKRRVTFSLDTSKSTAYLQLNSLRAEDTAVYYCAKYPHYYGSSHWYFDVWGQGTLVTVSSGGGGSGGGGSGGGGSDIQMTQSPSSLSASVGDRVTITCSASQDISNYLNWYQQKPGKAPKVLIYFTSSLHSGVPSRFSGSGSGTDFTLTISSLQPEDFATYYCQQYSTVPWTFGQGTKVEIK
notes: Single chain format; not shown: HA-His6 tag at C-terminus
Take B1: the “fold higher binding affinity than the parental/reference antibody (hAB1)” value in experiment [1] was roughly 4 fold. For the same molecule, in experiment [2], the dissociation constant Kd (usually the free concentration of one partner at which half of the binding sites on the other are occupied at equilibrium, for simple one-to-one binding) is 3.1 nM; the “hAB1 Kd/Variant Kd” value was 4.2; the off-rate constant (koff) (commonly the first-order rate constant of dissociation) was found to be 0.000115 s⁻¹; the kon (in general, a measure of how fast the partners come together) turned out to be 37400 M⁻¹ s⁻¹. Also, in experiment [3], the “fold higher binding affinity than hAB1” value is 4 fold.

B2: hAB4 (scFv)
scFv: B1 scFv with E1Q, S21T, I37V, V68F, F70I, T78Q, L83M
notes: as for B1
With B2, in experiment [2], the Kd came to 26 nM, the “hAB1 Kd/Variant Kd” value turned out to be 0.5, the koff was found to be 0.000104 s⁻¹ and the kon came to 4000 M⁻¹ s⁻¹. Further, the “fold higher binding affinity than hAB1” value in experiment [3] is 2 fold.

B3: hAB12 (scFv)
scFv: B1 scFv with Q6E, V11L, I37V, V68F, L83M, H101Y, S105R
notes: as for B1
With B3, in experiment [2], the Kd was 1.5 nM, the “hAB1 Kd/Variant Kd” value amounted to 9.2, the koff turned out to be 3e-06 s⁻¹ and the kon worked out at 2300 M⁻¹ s⁻¹.
